Ends that are not written are not given here. * marks the point of attachment. Biotin = O=C1N[C@H]2[C@H](CS[C@H]2CCCCC(=O)*)N1
B1: CC CKR-4 C-terminal PL peptide AA44L, biotinylated (peptide)
peptide: Biotin-DTPSSSYTQSTMDHDLHDAL
B2: CD5 C-terminal PL peptide AA49L, biotinylated (peptide)
peptide: Biotin-SMQPDNSSDSDYDLHGAQRL

target: GST-MPP1 PDZ domain fusion protein (55 Kd erythrocyte membrane protein AA101-186; PDZ domain 1 of 1) (UniProt P08515 1-218 = GST); test: A/G assays
Sequence (P08515 1-218, tags or fused parts left off): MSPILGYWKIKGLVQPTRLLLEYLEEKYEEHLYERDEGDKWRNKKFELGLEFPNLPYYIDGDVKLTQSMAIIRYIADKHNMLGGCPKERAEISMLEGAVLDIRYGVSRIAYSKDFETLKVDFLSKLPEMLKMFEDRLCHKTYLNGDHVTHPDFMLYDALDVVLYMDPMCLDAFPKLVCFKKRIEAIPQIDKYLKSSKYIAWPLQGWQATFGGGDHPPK

Binder	binding result
B1	no binding
B2	no binding

target: GST-prIL16 PDZ domain fusion protein (putative interleukin 16 precursor AA170-383; PDZ domains 1-2 of 2) (UniProt P08515 1-218 = GST); test: A/G assays
Sequence (P08515 1-218, tags or fused parts left off): as above

Binder	binding result
B1	no binding
B2	no binding

target: T1, GST-CASK PDZ domain fusion protein (CASK AA495-584; PDZ domain 1 of 1) (mouse, UniProt P08515 1-218 = GST); test: A/G assays
T1 construct: also called mCASK
T1 sequence (P08515 1-218, tags or fused parts left off): as above

Binder	binding result
B1	no binding
B2	no binding

target: T2, GST-MPP2 PDZ domain fusion protein (maguk p55 subfamily member 2 (DLG2) AA185-273; PDZ domain 1 of 1) (UniProt P08515 1-218 = GST); test: A/G assays
T2 construct: also called MMP2
T2 sequence (P08515 1-218, tags or fused parts left off): as above

Binder	binding result
B1	no binding
B2	no binding

target: GST-LIMK2 PDZ domain fusion protein (human LIM domain kinase 2 AA185-275; PDZ domain 1 of 1) (human, UniProt P08515 1-218 = GST); test: A/G assays
Sequence (P08515 1-218, tags or fused parts left off): as above

Binder	binding result
B1	no binding
B2	no binding

target: GST-DVL1 PDZ domain fusion protein (human dishevelled segment polarity protein homolog AA248-340); PDZ domain … (human, UniProt P08515 1-218 = GST); test: A/G assays
Sequence (P08515 1-218, tags or fused parts left off): as above

Binder	binding result
B1	no binding
B2	no binding

target: T3, GST-TAX43 PDZ domain fusion protein (human tax interaction protein 43 AA15-85; PDZ domain 1 of 1) (human, UniProt P08515 1-218 = GST); test: A/G assays
T3 construct: also called TX 43
T3 sequence (P08515 1-218, tags or fused parts left off): as above

Binder	binding result
B1	no binding
B2	no binding

target: T4, GST-SYN1a PDZ domain fusion protein (alpha1-syntrophin AA96-189; PDZ domain 1 of 1) (UniProt P08515 1-218 = GST); test: A/G assays
T4 construct: also called SYN 1 alpha; SYNTR 1 alpha
T4 sequence (P08515 1-218, tags or fused parts left off): as above

Binder	binding result
B1	no binding
B2	no binding

target: T5, GST-NeDLG PDZ domain fusion protein (presynaptic protein sao102, neuroendocrine-dlg; PDZ domains 1-2 of 3) (UniProt P08515 1-218 = GST); test: A/G assays
T5 construct: also called NeDLG1

Binder	binding result
B1	no binding
B2	no binding

target: GST-LIM PDZ domain fusion protein (Human LIM protein AA29-112; PDZ domain 1 of 1) (human, UniProt P08515 1-218 = GST); test: A/G assays
Sequence (P08515 1-218, tags or fused parts left off): as above

Binder	binding result
B1	no binding
B2	no binding

target: T6, GST-RGS12 PDZ domain fusion protein (human regulator of G-protein signalling 12 AA35-103; PDZ domain 1 of 1) (human, UniProt P08515 1-218 = GST); test: A/G assays
T6 construct: also called RSG12
T6 sequence (P08515 1-218, tags or fused parts left off): as above

Binder	binding result
B1	no binding
B2	no binding

target: T7, GST-TAX40 PDZ domain fusion protein (human tax interaction protein 40 AA35-137; PDZ domain 1 of 1) (human, UniProt P08515 1-218 = GST); test: A/G assays
T7 construct: also called TX 40

Binder	binding result
B1	no binding
B2	no binding

target: T8, GST-CBP PDZ domain fusion protein (Cytohesin binding protein HE AA85-175; PDZ domain 1 of 1) (UniProt P08515 1-218 = GST); test: A/G assays
T8 construct: also called Prot
T8 sequence (P08515 1-218, tags or fused parts left off): as above

Binder	binding result
B1	no binding
B2	no binding

target: GST-MINT3 PDZ domain fusion protein (human MINT3 AA11-52; PDZ domain 1 of 1) (human, UniProt P08515 1-218 = GST); test: A/G assays

Binder	binding result
B1	no binding
B2	no binding

target: T9, GST-KIAA0303 PDZ domain fusion protein (KIAA0303 AA652-742; PDZ domain 1 of 1) (UniProt P08515 1-218 = GST); test: A/G assays
T9 construct: also called K303
T9 sequence (P08515 1-218, tags or fused parts left off): as above

Binder	binding result
B1	no binding
B2	no binding

target: T10, GST-TAX33 PDZ domain fusion protein (tax interaction protein 33 AA73-162; PDZ domain 1 of 1) (UniProt P08515 1-218 = GST); test: A/G assays
T10 construct: also called TX33

Binder	binding result
B1	no binding
B2	no binding

target: T11, GST-KIAA0316 PDZ domain fusion protein (KIAA0316 AA197-284; PDZ domain 1 of 1) (UniProt P08515 1-218 = GST); test: A/G assays
T11 construct: also called K316
T11 sequence (P08515 1-218, tags or fused parts left off): as above

Binder	binding result
B1	no binding
B2	no binding

target: GST-AF6 PDZ domain fusion protein (af-6 protein AA985-1077; PDZ domain 1 of 1) (UniProt P08515 1-218 = GST); test: A/G assays
Sequence (P08515 1-218, tags or fused parts left off): as above

Binder	binding result
B1	no binding
B2	no binding

target: T12, GST-41.8 kD PDZ domain fusion protein (hypothetical 41.8 kD protein AA4-85; PDZ domain 1 of 1) (UniProt P08515 1-218 = GST); test: A/G assays
T12 construct: also called hypoth
T12 sequence (P08515 1-218, tags or fused parts left off): as above

Binder	binding result
B1	no binding
B2	no binding

target: GST-TIAM1 PDZ domain fusion protein (T-lymphoma invasion and metastasis inducing protein 1 AA1001-1088); PDZ 1 … (UniProt P08515 1-218 = GST); test: A/G assays
Sequence (P08515 1-218, tags or fused parts left off): as above

Binder	binding result
B1	no binding
B2	no binding

target: T13, GST-TAX2 PDZ domain fusion protein (human tax interaction protein 2 AA54-140; PDZ domain 1 of 1) (human, UniProt P08515 1-218 = GST); test: A/G assays
T13 construct: also called TX 2
T13 sequence (P08515 1-218, tags or fused parts left off): as above

Binder	binding result
B1	no binding
B2	no binding

target: GST-NOS1 PDZ domain fusion protein (human neuronal nitric oxide synthase; PDZ domain 1 of 1) (human, UniProt P08515 1-218 = GST); test: A/G assays
Sequence (P08515 1-218, tags or fused parts left off): as above

Binder	binding result
B1	no binding
B2	no binding

target: GST-PSD95 PDZ domain fusion protein (human post-synaptic density protein 95 AA387-724; PDZ domains 1-3 of 3) (human, UniProt P08515 1-218 = GST); test: A/G assays
Sequence (P08515 1-218, tags or fused parts left off): as above

Binder	binding result
B1	no binding
B2	no binding

target: GST-PTN-4 PDZ domain fusion protein (protein-tyrosine phosphatase meg1 AA774-862; PDZ domain 1 of 1) (UniProt P08515 1-218 = GST); test: A/G assays
Sequence (P08515 1-218, tags or fused parts left off): as above

Binder	binding result
B1	no binding
B2	no binding

target: T14, GST-KIAA0559 PDZ domain fusion protein (KIAA0559 AA766-870; PDZ1 of 1) (UniProt P08515 1-218 = GST); test: A/G assays
T14 construct: also called K559
T14 sequence (P08515 1-218, tags or fused parts left off): as above

Binder	binding result
B1	no binding
B2	no binding

From patent US20090149339A1 (published 2009)
